Measured values from patent US20120225049.

How the values were obtained:
[1] = biological target: Recombinant wild type rat SNAP25 full length 1-206 (UniProt P60881)
[2] = system: Native guinea pig VAMP8 in isolated pancreatic zymogen granules
[3] = system: Native guinea pig VAMP2 in isolated pancreatic zymogen granules
[4] = biological target: K85A-R86S-K87A mutant rat VAMP2 cytoplasmic portion 1-96 (UniProt P63045)
[5] = biological target: Assembled ternary SNARE complex (syntaxin1A 1-263 : SNAP25 : VAMP2 1-96) (UniProt P32851)
Sequence of Assembled ternary SNARE complex (syntaxin1A 1-263 : SNAP25 : VAMP2 1-96) (P32851 whole entry, looked up, tested part not stated, one chain of several): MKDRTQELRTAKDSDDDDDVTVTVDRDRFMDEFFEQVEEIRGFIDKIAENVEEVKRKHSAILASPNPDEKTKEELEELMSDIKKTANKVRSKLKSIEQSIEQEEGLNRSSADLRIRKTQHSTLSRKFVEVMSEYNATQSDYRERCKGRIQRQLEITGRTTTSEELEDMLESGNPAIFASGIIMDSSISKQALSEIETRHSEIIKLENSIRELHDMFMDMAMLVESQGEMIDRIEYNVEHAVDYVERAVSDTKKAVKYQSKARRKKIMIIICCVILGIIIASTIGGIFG

[6] = biological target: T1, Recombinant human VAMP8 (endobrevin) cytoplasmic portion 1-74 (UniProt Q9BV40)
T1 sequence: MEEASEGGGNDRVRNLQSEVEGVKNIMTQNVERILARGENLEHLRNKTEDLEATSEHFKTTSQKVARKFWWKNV

Sequence of Recombinant wild type rat SNAP25 full length 1-206 (P60881 whole entry, looked up, tested part not stated): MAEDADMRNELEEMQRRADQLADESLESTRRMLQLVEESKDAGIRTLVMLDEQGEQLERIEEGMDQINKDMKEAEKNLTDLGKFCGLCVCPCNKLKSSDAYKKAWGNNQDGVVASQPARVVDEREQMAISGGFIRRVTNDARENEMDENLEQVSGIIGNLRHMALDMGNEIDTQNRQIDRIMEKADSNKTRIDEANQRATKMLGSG
Sequence of K85A-R86S-K87A mutant rat VAMP2 cytoplasmic portion 1-96 (P63045 1-96 K85A/R86S/K87A): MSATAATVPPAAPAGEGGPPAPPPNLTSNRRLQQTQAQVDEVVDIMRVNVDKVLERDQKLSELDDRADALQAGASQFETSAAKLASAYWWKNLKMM

## Fraction ν of Tityus serrulatus venom (Fx ν metalloprotease)
[1]
  proteolytic cleavage (transblot): is a t-SNARE that is also cleaved by Fx ν
[2]
  proteolytic cleavage (Western blot of isolated zymogen granules): VAMP8 is also a proteolytic target in ZG during incubation with Fx ν
[3]
  proteolytic cleavage (Western blot of isolated zymogen granules): whole TSV or Fx ν rapidly cleave VAMP2 (upper panel) even in short incubation periods (5 and 30 min)
[4]
  proteolytic cleavage (PAGE, reverse phase chromatography, sequencing): these substitutions prevented the previously observed cleavage
[5]
  proteolytic cleavage (PAGE staining density, 60 min): a clear change in staining density indicating the occurrence of cleavage by Fx ν of both the assembled complex (not boiled, lane 3) and the unassembled SNARE complex proteins (boiled, lane 4)
[6]
  proteolytic cleavage (transblot, mass spectrometry): is cleaved upon exposure to Fx ν
